Source: IntAct's records for PubMed 31142615

Target: marh2_human MARCHF2 (UniProt Q9P0N8)
Sequence (Q9P0N8 whole entry): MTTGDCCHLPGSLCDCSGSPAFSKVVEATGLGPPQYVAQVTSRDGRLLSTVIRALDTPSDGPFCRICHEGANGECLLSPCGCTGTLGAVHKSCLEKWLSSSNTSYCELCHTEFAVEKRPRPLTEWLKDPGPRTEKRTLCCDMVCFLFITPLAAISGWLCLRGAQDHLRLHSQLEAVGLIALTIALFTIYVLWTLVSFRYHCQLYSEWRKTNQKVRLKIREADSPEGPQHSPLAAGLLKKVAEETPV

Endoplasmic reticulum-Golgi intermediate compartment protein 3 (Homo sapiens), Q9Y282 K6R;K8R, sequence (Q9Y282 whole entry K6R/K8R): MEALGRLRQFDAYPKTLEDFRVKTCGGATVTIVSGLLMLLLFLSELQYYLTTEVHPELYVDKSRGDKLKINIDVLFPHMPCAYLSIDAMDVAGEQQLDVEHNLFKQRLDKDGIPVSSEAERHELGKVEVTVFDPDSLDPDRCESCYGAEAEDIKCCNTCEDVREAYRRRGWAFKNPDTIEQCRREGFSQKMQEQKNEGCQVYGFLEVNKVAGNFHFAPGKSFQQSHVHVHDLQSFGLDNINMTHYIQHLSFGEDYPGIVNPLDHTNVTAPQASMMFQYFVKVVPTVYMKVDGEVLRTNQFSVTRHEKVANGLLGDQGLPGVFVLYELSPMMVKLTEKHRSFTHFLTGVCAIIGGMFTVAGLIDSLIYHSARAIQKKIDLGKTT

Substance: Endoplasmic reticulum-Golgi intermediate compartment protein 3 (Homo sapiens), Q9Y282 K6R;K8R
- effect of a mutation on the interaction: with no effect
